Data reported in the array DNA melting data of Ke et al..

Experiment: melting temperature; melt of duplexes
Details: sodium 0.0675 M; strand 1 µM

| Substance | Tm [°C] |
| --- | --- |
| CGACGTGCTGTATGTGCTG+CAGCACATCCTGCACGTCG ((((((((.(.((((((((+)))))))).).)))))))) | 51.5 |
| CGACGTGCACGATGTGCTG+CAGCACATTGCGCACGTCG ((((((((.(.((((((((+)))))))).).)))))))) | 52.1 |
| CGACGTGCCGGATGTGCTG+CAGCACATGCCGCACGTCG ((((((((.(.((((((((+)))))))).).)))))))) | 53.4 |
| CGACGTGCGGTATGTGCTG+CAGCACATTCAGCACGTCG ((((((((.(.((((((((+)))))))).).)))))))) | 54.2 |
| CGACGTGCGACATGTGCTG+CAGCACATCTAGCACGTCG ((((((((.(.((((((((+)))))))).).)))))))) | 51.5 |
| CGACGTGCCTGATGTGCTG+CAGCACATGTAGCACGTCG ((((((((...((((((((+))))))))...)))))))) | 49.3 |
| CGACGTGCGCTATGTGCTG+CAGCACATAGGGCACGTCG ((((((((.((((((((((+)))))))))).)))))))) | 59.6 |
| CGACGTGCCTGATGTGCTG+CAGCACATTTGGCACGTCG (((((((((..((((((((+))))))))..))))))))) | 55.6 |
| CGACGTGCGCGATGTGCTG+CAGCACATTGGGCACGTCG ((((((((.(.((((((((+)))))))).).)))))))) | 57.1 |
| CGACGTGCCGTATGTGCTG+CAGCACATTACGCACGTCG ((((((((...((((((((+))))))))...)))))))) | 50.9 |
| CGACGTGCATCATGTGCTG+CAGCACATACGGCACGTCG ((((((((...((((((((+))))))))...)))))))) | 46.3 |
| CGACGTGCCGAATGTGCTG+CAGCACATGACGCACGTCG ((((((((...((((((((+))))))))...)))))))) | 50.1 |
| CGACGTGCTCCATGTGCTG+CAGCACATTCAGCACGTCG (((((((((..((((((((+))))))))..))))))))) | 48.7 |
| CGACGTGCCTTATGTGCTG+CAGCACATACGGCACGTCG (((((((((.(((((((((+))))))))).))))))))) | 56.1 |
| CGACGTGCGGTATGTGCTG+CAGCACATCTGGCACGTCG ((((((((...((((((((+))))))))...)))))))) | 51.6 |
| CGACGTGCTTAATGTGCTG+CAGCACATGTAGCACGTCG (((((((((..((((((((+))))))))..))))))))) | 53.4 |
| CGACGTGCTGTATGTGCTG+CAGCACATAGGGCACGTCG ((((((((..(((((((((+)))))))))..)))))))) | 52.2 |
| CGACGTGCTGCATGTGCTG+CAGCACATGAGGCACGTCG ((((((((..(((((((((+)))))))))..)))))))) | 56.8 |
| CGACGTGCGCAATGTGCTG+CAGCACATTAGGCACGTCG ((((((((..(((((((((+)))))))))..)))))))) | 52.7 |
| CGACGTGCCTCATGTGCTG+CAGCACATGTAGCACGTCG ((((((((..(((((((((+)))))))))..)))))))) | 52.9 |
| CGACGTGCGAAATGTGCTG+CAGCACATGAGGCACGTCG ((((((((...((((((((+))))))))...)))))))) | 54.5 |
| CGACGTGCATGATGTGCTG+CAGCACATCTCGCACGTCG ((((((((..(((((((((+)))))))))..)))))))) | 53.9 |
| CGACGTGCCTGATGTGCTG+CAGCACATCATGCACGTCG ((((((((.((((((((((+)))))))))).)))))))) | 56.9 |
| CGACGTGCGCTATGTGCTG+CAGCACATTAAGCACGTCG ((((((((...((((((((+))))))))...)))))))) | 52.8 |
| CGACGTGCGAGATGTGCTG+CAGCACATTCTGCACGTCG ((((((((...((((((((+))))))))...)))))))) | 52.9 |
| CGACGTGCGCTATGTGCTG+CAGCACATTCTGCACGTCG ((((((((...((((((((+))))))))...)))))))) | 48.6 |

| Substance | Tm [°C] |
| --- | --- |
| CGACGTGCCTCATGTGCTG+CAGCACATCGTGCACGTCG ((((((((...((((((((+))))))))...)))))))) | 43 |
| CGACGTGCAGTATGTGCTG+CAGCACATCAAGCACGTCG ((((((((...((((((((+))))))))...)))))))) | 49.6 |
| CGACGTGCAAGATGTGCTG+CAGCACATAACGCACGTCG ((((((((...((((((((+))))))))...)))))))) | 48.6 |
| CGACGTGCCGAATGTGCTG+CAGCACATCGCGCACGTCG ((((((((...((((((((+))))))))...)))))))) | 54.7 |
| CGACGTGCTGCATGTGCTG+CAGCACATCTAGCACGTCG (((((((((..((((((((+))))))))..))))))))) | 52.4 |
| CGACGTGCTTGATGTGCTG+CAGCACATTGCGCACGTCG ((((((((...((((((((+))))))))...)))))))) | 48.1 |
| CGACGTGCGCCATGTGCTG+CAGCACATCTGGCACGTCG ((((((((...((((((((+))))))))...)))))))) | 47.4 |
| CGACGTGCTTGATGTGCTG+CAGCACATCAAGCACGTCG (((((((((((((((((((+))))))))))))))))))) | 64.9 |
| CGACGTGCAGGATGTGCTG+CAGCACATTTCGCACGTCG ((((((((...((((((((+))))))))...)))))))) | 51.1 |
| CGACGTGCTAAATGTGCTG+CAGCACATGGGGCACGTCG ((((((((...((((((((+))))))))...)))))))) | 52.5 |
| CGACGTGCCACATGTGCTG+CAGCACATTGAGCACGTCG ((((((((...((((((((+))))))))...)))))))) | 52.2 |
| CGACGTGCGCAATGTGCTG+CAGCACATCCTGCACGTCG ((((((((...((((((((+))))))))...)))))))) | 49.2 |
| CGACGTGCTGCATGTGCTG+CAGCACATACGGCACGTCG ((((((((.(.((((((((+)))))))).).)))))))) | 53.6 |
| CGACGTGCGGTATGTGCTG+CAGCACATACGGCACGTCG ((((((((.((((((((((+)))))))))).)))))))) | 58.5 |
| CGACGTGCAATATGTGCTG+CAGCACATTGAGCACGTCG ((((((((...((((((((+))))))))...)))))))) | 50.4 |
| CGACGTGCTGCATGTGCTG+CAGCACATTACGCACGTCG ((((((((...((((((((+))))))))...)))))))) | 48.2 |
| CGACGTGCAACATGTGCTG+CAGCACATATGGCACGTCG ((((((((.(.((((((((+)))))))).).)))))))) | 49.2 |
| CGACGTGCACGATGTGCTG+CAGCACATTCAGCACGTCG ((((((((...((((((((+))))))))...)))))))) | 45.5 |
| CGACGTGCTCCATGTGCTG+CAGCACATACGGCACGTCG ((((((((...((((((((+))))))))...)))))))) | 47 |
| CGACGTGCGCGATGTGCTG+CAGCACATGCTGCACGTCG ((((((((...((((((((+))))))))...)))))))) | 52.9 |
| CGACGTGCACCATGTGCTG+CAGCACATGCAGCACGTCG ((((((((..(((((((((+)))))))))..)))))))) | 50.4 |
| CGACGTGCAATATGTGCTG+CAGCACATAACGCACGTCG ((((((((..(((((((((+)))))))))..)))))))) | 50.7 |
| CGACGTGCCTAATGTGCTG+CAGCACATAGCGCACGTCG ((((((((...((((((((+))))))))...)))))))) | 50.3 |
| CGACGTGCAGGATGTGCTG+CAGCACATTCCGCACGTCG ((((((((.(.((((((((+)))))))).).)))))))) | 54.6 |
| CGACGTGCCTGATGTGCTG+CAGCACATTCCGCACGTCG ((((((((...((((((((+))))))))...)))))))) | 48.5 |
| CGACGTGCTCGATGTGCTG+CAGCACATGATGCACGTCG ((((((((...((((((((+))))))))...)))))))) | 51.9 |
